# Changes are numbered by the printed parent chain.
# T1: human GIP receptor (human, UniProt P48546 22-466)
# T1 sequence (looked up): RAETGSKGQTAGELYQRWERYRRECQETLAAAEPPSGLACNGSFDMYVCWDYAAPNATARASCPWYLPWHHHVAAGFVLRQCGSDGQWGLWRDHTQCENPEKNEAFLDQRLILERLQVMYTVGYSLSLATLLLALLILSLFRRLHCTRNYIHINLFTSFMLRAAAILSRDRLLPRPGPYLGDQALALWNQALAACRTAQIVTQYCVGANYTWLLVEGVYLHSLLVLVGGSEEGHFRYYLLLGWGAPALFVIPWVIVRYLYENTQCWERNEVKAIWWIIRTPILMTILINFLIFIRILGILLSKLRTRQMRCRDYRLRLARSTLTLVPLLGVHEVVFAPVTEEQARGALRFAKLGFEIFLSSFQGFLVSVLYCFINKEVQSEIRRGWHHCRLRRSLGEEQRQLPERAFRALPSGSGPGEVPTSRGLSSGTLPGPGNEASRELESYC
# B1: Example 116 (peptide)
# peptide: YXEGTXTSDXSIXLDXKAQXEFIKXLIEGGPSSGAPPPS
# modifications: Aib2, αMeF(2F)6, Ac5c10, αMeL13, Orn16, Aib20, αMeY25, K17 and K24: K(AEEA2-(γ-Glu)-CO-(CH2)12-CO2H), C-terminal NH2
# B2: Example 12 (peptide)
# peptide: B1 peptide with K24X, P31K
# modifications: Aib2, αMeF(2F)6, 4Pal10, αMeL13, Orn16, Aib20, D-Glu24, αMeY25, K17 and K31: K(AEEA-(γ-Glu)-(10-(4-carboxyphenoxy)decanoyl)), C-terminal NH2
# B3: Example 130 (peptide)
# peptide: B1 peptide with X10K, K24X
# modifications: Aib2, αMeF(2F)6, αMeL13, Orn16, Aib20, D-Glu24, αMeY25, K10 and K17: K(AEEA2-(γ-Glu)-(4-(4-tert-butylphenyl)butanoyl)), C-terminal NH2
# B4: Example 118 (peptide)
# peptide: B1 peptide with X10V, F22X
# modifications: Aib2, αMeF(2F)6, αMeL13, Orn16, Aib20, αMeF22, αMeY25, K17 and K24: K(AEEA2-(γ-Glu)-CO-(CH2)12-CO2H), C-terminal NH2
# B5: Example 140 (peptide)
# peptide: B1 peptide with K24X, G30K
# modifications: Aib2, αMeF(2F)6, 4Pal10, αMeL13, Orn16, Aib20, D-Glu24, αMeY25, K17 and K30: K(AEEA2-(γ-Glu)-CO-(CH2)10-CH3), C-terminal NH2
# B6: Example 136 (peptide)
# peptide: B1 peptide with X10K, K24X
# modifications: Aib2, αMeF(2F)6, αMeL13, Orn16, Aib20, D-Glu24, αMeY25, K10 and K17: K(AEEA2-(γ-Glu)-CO-(CH2)10-CH3), C-terminal NH2
# B7: Example 127 (peptide)
# peptide: B1 peptide with E21K, K24X
# modifications: Aib2, αMeF(2F)6, 4Pal10, αMeL13, Orn16, Aib20, D-Glu24, αMeY25, K17 and K21: K(AEEA2-(γ-Glu)-(10-(4-carboxyphenoxy)decanoyl)), C-terminal NH2
# B8: Example 117 (peptide)
# peptide: B1 peptide with S11X, F22X
# modifications: Aib2, αMeF(2F)6, 4Pal10, Aib11, αMeL13, Orn16, Aib20, αMeF22, αMeY25, K17 and K24: K(AEEA2-(γ-Glu)-CO-(CH2)12-CO2H), C-terminal NH2
# B9: Example 133 (peptide)
# peptide: B1 peptide with K24X, E28K
# modifications: Aib2, αMeF(2F)6, 4Pal10, αMeL13, Orn16, Aib20, D-Glu24, αMeY25, K17 and K28: K(AEEA2-(γ-Glu)-(4-(4-tert-butylphenyl)butanoyl)), C-terminal NH2
# B10: Example 144 (peptide)
# peptide: B1 peptide with K24X, P31K
# modifications: Aib2, αMeF(2F)6, 4TAA10, αMeL13, Orn16, Aib20, D-Glu24, αMeY25, K17 and K31: K(AEEA2-(γ-Glu)-CO-(CH2)12-CO2H), C-terminal NH2
# B11: Example 120 (peptide)
# peptide: B1 peptide with F22X
# modifications: Aib2, αMeF(2F)6, Ac5c10, αMeL13, Orn16, Aib20, αMeF22, αMeY25, K17 and K24: K(AEEA2-(γ-Glu)-CO-(CH2)12-CO2H), C-terminal NH2
# B12: Example 13 (peptide)
# peptide: B1 peptide with K24X, P31K
# modifications: Aib2, αMeF(2F)6, 4Pal10, αMeL13, Orn16, Aib20, D-Glu24, αMeY25, K17 and K31: K(AEEA-(γ-Glu)-CO-(CH2)14-CH3), C-terminal NH2
# B13: Example 131 (peptide)
# peptide: B1 peptide with E21K, K24X
# modifications: Aib2, αMeF(2F)6, 4Pal10, αMeL13, Orn16, Aib20, D-Glu24, αMeY25, K17 and K21: K(AEEA2-(γ-Glu)-(4-(4-tert-butylphenyl)butanoyl)), C-terminal NH2
# B14: Example 126 (peptide)
# peptide: B1 peptide with K24X, P31K
# modifications: Aib2, αMeF(2F)6, 4Pal10, αMeL13, Orn16, Aib20, D-Glu24, αMeY25, K17 and K31: K(AEEA2-(γ-Glu)-(8-(4-carboxyphenoxy)octanoyl)), C-terminal NH2
# B15: Example 143 (peptide)
# peptide: B1 peptide with K24X, P31K
# modifications: Aib2, αMeF(2F)6, 2FA10, αMeL13, Orn16, Aib20, D-Glu24, αMeY25, K17 and K31: K(AEEA2-(γ-Glu)-CO-(CH2)12-CO2H), C-terminal NH2
# B16: Example 124 (peptide)
# peptide: B1 peptide with F22X
# modifications: Aib2, αMeF(2F)6, Ac5c10, αMeL13, Orn16, Aib20, αMeF22, αMeF25, K17 and K24: K(AEEA2-(γ-Glu)-CO-(CH2)12-CO2H), C-terminal NH2
# Target: human glucagon receptor (human, UniProt P47871 26-477)
# Assay: cell-based or functional assay
row,Binder,"EC50, cAMP"
1,B1,> 9950 nM
2,B2,> 9950 nM
3,B3,> 9950 nM
4,B4,> 9950 nM
5,B5,> 9950 nM
6,B6,> 9950 nM
7,B7,> 9950 nM
8,B8,> 9950 nM
9,B9,> 9950 nM
10,B10,> 9950 nM
11,B11,> 9950 nM
12,B12,> 9950 nM
13,B13,> 9950 nM
14,B14,> 9950 nM
15,B15,> 9950 nM
16,B16,> 9950 nM

# Target: human GLP-1 receptor (human, UniProt P43220 24-463)
# Assay: cell-based or functional assay
Binder,"EC50, cAMP","Emax, cAMP"
B1,0.197 nM,–
B2,0.423 nM,–
B3,0.204 nM,100%
B4,0.437 nM,–
B5,0.131 nM,–
B6,0.0918 nM,–
B7,0.762 nM,–
B8,5.6 nM,98.2%
B9,0.258 nM,–
B10,3.47 nM,–
B11,1.43 nM,–
B12,0.0214 nM,–
B13,0.19 nM,–
B14,1.69 nM,–
B15,0.512 nM,–
B16,1.24 nM,93.3%

# Target: T1, human GIP receptor
# Assay: cell-based or functional assay
Binder,"EC50, cAMP","Emax, cAMP"
B1,0.137 nM,115%
B2,0.0127 nM,–
B3,0.0266 nM,94.7%
B4,0.0547 nM,94.7%
B5,0.0121 nM,98.5%
B6,0.0069 nM,97.4%
B7,0.027 nM,–
B8,0.0352 nM,96.4%
B9,0.018 nM,–
B10,0.0193 nM,90%
B11,0.0866 nM,–
B12,0.00597 nM,–
B13,0.0156 nM,–
B14,0.0472 nM,–
B15,0.022 nM,–
B16,0.1 nM,–

# Reference: patent publication US20230265151A1, “GIP/GLP1 CO-AGONIST COMPOUNDS” (priority 2020, published 2023)
